Where two headings read alike, the source gives them in different places.

The target of assay [1] is TNFR1 on the surface of cells (HT1080, HeLa, Kym-1) (human) (UniProt P19438). Kind of assay: cell-based or functional assay.
Assay [2] shares this target. Kind of assay: cell-based or functional assay. The source holds these as a separate data set.
In assay [3] the target is human TNFR1-Fc fusion protein (human) (UniProt P19438). Nature of the assay: ELISA, human TNFR1-Fc. (An ELISA detects its analyte on a solid surface through an enzyme-linked reagent.)
The target is the same in assay [4]. Nature of the assay: ELISA, immobilized human TNFR1-Fc.

TNFR1 on the surface of cells (HT1080, HeLa, Kym-1) (human), sequence (P19438 30-455): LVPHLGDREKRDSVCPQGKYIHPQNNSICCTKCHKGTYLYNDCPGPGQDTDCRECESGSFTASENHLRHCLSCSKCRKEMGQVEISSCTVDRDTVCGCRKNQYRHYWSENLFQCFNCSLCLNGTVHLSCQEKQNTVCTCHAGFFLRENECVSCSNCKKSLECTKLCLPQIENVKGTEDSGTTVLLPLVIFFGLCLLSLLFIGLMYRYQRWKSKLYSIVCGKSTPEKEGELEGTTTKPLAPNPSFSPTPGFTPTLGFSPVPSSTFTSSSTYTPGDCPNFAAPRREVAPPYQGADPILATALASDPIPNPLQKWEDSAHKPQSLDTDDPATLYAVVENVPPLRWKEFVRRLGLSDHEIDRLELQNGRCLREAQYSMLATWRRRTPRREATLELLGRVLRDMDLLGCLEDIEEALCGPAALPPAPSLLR
human TNFR1-Fc fusion protein (human), sequence (P19438 30-211): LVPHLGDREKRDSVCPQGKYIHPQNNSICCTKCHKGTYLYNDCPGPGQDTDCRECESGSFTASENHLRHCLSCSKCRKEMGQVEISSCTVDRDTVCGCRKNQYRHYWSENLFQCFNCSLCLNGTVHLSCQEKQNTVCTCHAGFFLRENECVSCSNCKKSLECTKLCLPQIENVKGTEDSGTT

The EC50 is the concentration that produces a half-maximal response. Higher therefore signals lower potency in that assay. Consider ATROSAB (antibody), for which, in assay [1], the IC50, Cell death induction [nM] (Kym-1 cells, 0.01 nM TNF) came out at 64.4 nM; the IC50, IL-6 [nM] (HeLa cells, 0.1 nM TNF) amounted to 165 nM; the IC50, IL-8 [nM] (HT1080 cells, 0.1 nM TNF) turned out to be 84.1 nM; the IL-8 Inhibition IC50 was determined as 97.8 nM. For the same substance, in assay [2], the IL-8 Inhibition IC50 turned out to be 136 nM. Besides, the half-maximal effective concentration (EC50) in assay [3] was 0.09 nM. The same substance showed an EC50 in assay [4] of 0.4 nM.
